Results: patent US20230338555A1 (IONIS PHARMACEUTICALS, published 2023)
Like-named read-outs stand apart in the source and are kept apart here.

How the values were obtained:
Assay in all cases: cell-based or functional assay
[1] = target: T1, human sortilin stably expressed on HEK 293 cells (HEK-SORT1 cells) (human, UniProt Q99523 78-831)
T1 sequence (looked up): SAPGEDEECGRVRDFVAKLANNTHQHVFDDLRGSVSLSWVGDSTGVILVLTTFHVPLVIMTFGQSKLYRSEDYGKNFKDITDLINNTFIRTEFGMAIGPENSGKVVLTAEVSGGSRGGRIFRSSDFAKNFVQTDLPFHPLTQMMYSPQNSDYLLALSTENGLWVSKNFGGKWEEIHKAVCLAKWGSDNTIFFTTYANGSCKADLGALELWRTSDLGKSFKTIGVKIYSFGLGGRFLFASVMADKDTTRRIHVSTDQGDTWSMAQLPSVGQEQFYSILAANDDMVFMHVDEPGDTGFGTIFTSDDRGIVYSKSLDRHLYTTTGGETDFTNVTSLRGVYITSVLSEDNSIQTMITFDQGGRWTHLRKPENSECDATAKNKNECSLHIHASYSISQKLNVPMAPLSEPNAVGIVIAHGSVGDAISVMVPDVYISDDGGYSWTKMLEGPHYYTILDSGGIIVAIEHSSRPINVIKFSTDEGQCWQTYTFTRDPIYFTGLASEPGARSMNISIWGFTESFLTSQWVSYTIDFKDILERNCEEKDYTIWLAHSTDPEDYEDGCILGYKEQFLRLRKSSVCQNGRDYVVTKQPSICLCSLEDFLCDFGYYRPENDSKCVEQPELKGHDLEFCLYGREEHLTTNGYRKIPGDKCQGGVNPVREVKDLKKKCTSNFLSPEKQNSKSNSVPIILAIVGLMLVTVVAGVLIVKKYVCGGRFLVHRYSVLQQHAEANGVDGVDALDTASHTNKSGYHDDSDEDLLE

[2] = target: T1, human sortilin stably expressed on HEK …; remark: listed apart in the source
[3] = target: T1, human sortilin stably expressed on HEK …; remark: listed apart in the source
[4] = target: T1, human sortilin stably expressed on HEK …; remark: listed apart in the source
[5] = target: T1, human sortilin stably expressed on HEK …; remark: listed apart in the source
[6] = target: T1, human sortilin stably expressed on HEK …; remark: listed apart in the source

- Mean Fluorescence Intensity (MFI), uptake 37C-4C, at 12 nM [1]: 54 MFI
- Mean Fluorescence Intensity (MFI), uptake 37C-4C, at 37 nM [1]: 66 MFI
- Mean Fluorescence Intensity (MFI), uptake 37C-4C, at 111 nM [1]: 101 MFI
- Mean Fluorescence Intensity (MFI), uptake 37C-4C, at 333 nM [1]: 205 MFI
- Mean Fluorescence Intensity (MFI), uptake 37C-4C, at 1000 nM [1]: 370 MFI
- Mean Fluorescence Intensity (MFI), uptake 37C-4C, at 12 nM [2]: 38 MFI
- Mean Fluorescence Intensity (MFI), uptake 37C-4C, at 37 nM [2]: 47 MFI
- Mean Fluorescence Intensity (MFI), uptake 37C-4C, at 333 nM [2]: 143 MFI
- Mean Fluorescence Intensity (MFI), uptake 37C-4C, at 1000 nM [2]: 371 MFI
- Mean Fluorescence Intensity (MFI), uptake 37C-4C, at 7 nM [3]: 43 MFI
- Mean Fluorescence Intensity (MFI), uptake 37C-4C, at 22 nM [3]: 50 MFI
- Mean Fluorescence Intensity (MFI), uptake 37C-4C, at 76 nM [3]: 73 MFI
- Mean Fluorescence Intensity (MFI), uptake 37C-4C, at 260 nM [3]: 145 MFI
- Mean Fluorescence Intensity (MFI), uptake 37C-4C, at 882 nM [3]: 381 MFI
- Mean Fluorescence Intensity (MFI), uptake 37C-4C, at 3000 nM [3]: 1300 MFI
- Mean Fluorescence Intensity (MFI), uptake 37C-4C, at 12 nM [4]: 43 MFI
- Mean Fluorescence Intensity (MFI), uptake 37C-4C, at 37 nM [4]: 54 MFI
- Mean Fluorescence Intensity (MFI), uptake 37C-4C, at 111 nM [4]: 71 MFI
- Mean Fluorescence Intensity (MFI), uptake 37C-4C, at 333 nM [4]: 171 MFI
- Mean Fluorescence Intensity (MFI), uptake 37C-4C, at 1000 nM [4]: 293 MFI
- Mean Fluorescence Intensity (MFI), uptake 37C-4C, at 12 nM [5]: 67 MFI
- Mean Fluorescence Intensity (MFI), uptake 37C-4C, at 111 nM [5]: 85 MFI
- Mean Fluorescence Intensity (MFI), uptake 37C-4C, at 333 nM [5]: 123 MFI
- Mean Fluorescence Intensity (MFI), uptake 37C-4C, at 1000 nM [5]: 192 MFI
- Mean Fluorescence Intensity (MFI), uptake 37C-4C, at 3000 nM [5]: 427 MFI
- Mean Fluorescence Intensity (MFI), uptake 37C-4C, at 12 nM [6]: 43 MFI
- Mean Fluorescence Intensity (MFI), uptake 37C-4C, at 37 nM [6]: 54 MFI
- Mean Fluorescence Intensity (MFI), uptake 37C-4C, at 111 nM [6]: 71 MFI
- Mean Fluorescence Intensity (MFI), uptake 37C-4C, at 333 nM [6]: 171 MFI
- Mean Fluorescence Intensity (MFI), uptake 37C-4C, at 1000 nM [6]: 293 MFI
B1: Compound No. 1162754, KNT neurotensin peptide conjugated to 20-mer uniform 2'-MOE phosphodiester oligonucleotide with 3'-Cy3 (peptide)
peptide: XLYENKPRRPYIL
modifications: not fully specified; position 1 printed dK (X = 2-azido-acetyl lysine); side chain joined via triazolo-BCN carbamate / 6-aminohexanol linker to the 5' end of oligonucleotide … (SEQ ID NO 2, uniform MOE, phosphodiester, 3'-Cy3)
